The source of these data is PMC6888877, “Deconstructing and repurposing the light-regulated interplay between Arabidopsis phytochromes and interacting factors” (Communications Biology, 2019).

Where only a bound is given, the exact number is not on record here.

The term stoichiometry N denotes the number of molecules, sites or subunits per partner or assembly. Broadly, the Kd is a measure of binding affinity in units of concentration. Read a low Kd as higher affinity.

Sequences and labels used below:
T1: Arabidopsis thaliana phytochrome B photosensory core module (AtPhyB PCM) (Arabidopsis thaliana, UniProt P14713 1-651, covalently incorporated bilin chromophore (PCB; co-expressed Synechocystis sp. heme oxygenase 1 and pcyA))
T1 construct: A. thaliana phytochrome B, photosensory core module (PAS-GAF-PHY with N-terminal extension), residues 1-651; Pr state (far-red light or dark) and Pfr state (red light; Pfr/Pr about 0.56/0.44) are told apart by the assays; In the cell experiments other constructs were used (PCM-VP16; PCM 1-650 with CAAX); source: E. coli BL21(DE3), plasmid pDG282, purified (Ni-NTA IMAC, anion exchange)
T1 sequence (looked up): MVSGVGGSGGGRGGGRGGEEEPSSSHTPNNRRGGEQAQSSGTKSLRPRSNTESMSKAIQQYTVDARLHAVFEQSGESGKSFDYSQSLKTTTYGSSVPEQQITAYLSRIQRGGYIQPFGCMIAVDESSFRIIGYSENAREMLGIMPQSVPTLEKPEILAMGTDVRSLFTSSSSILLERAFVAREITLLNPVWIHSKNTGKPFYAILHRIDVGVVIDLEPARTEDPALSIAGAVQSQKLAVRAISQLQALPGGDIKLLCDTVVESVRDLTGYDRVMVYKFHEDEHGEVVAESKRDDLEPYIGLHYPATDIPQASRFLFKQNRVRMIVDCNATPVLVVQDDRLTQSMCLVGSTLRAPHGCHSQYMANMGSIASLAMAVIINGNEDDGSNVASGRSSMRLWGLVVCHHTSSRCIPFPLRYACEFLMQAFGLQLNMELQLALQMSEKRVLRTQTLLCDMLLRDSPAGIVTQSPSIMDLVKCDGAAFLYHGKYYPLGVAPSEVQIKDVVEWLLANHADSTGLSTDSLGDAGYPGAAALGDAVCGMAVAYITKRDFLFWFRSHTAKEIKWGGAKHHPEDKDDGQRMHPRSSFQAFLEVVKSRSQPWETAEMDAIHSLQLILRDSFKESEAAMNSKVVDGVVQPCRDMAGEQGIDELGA

B1: P6.fus-EYFP (domain or fragment)
chain: MDQEYMELVFENGQILAKGQRSNAITNLGDTQVVPQSHVAAAHETNMLESNKHVD
B2: AtPIF3 (1-100)-EYFP, P3.100 (domain or fragment, Arabidopsis thaliana, UniProt O80536 1-100, looked up)
chain: MPLFELFRLTKAKLESAQDRNPSPPVDEVVELVWENGQISTQSQSSRSRNIPPPQANSSRAREIGNGSKTTMVDEIPMSVPSLMTGLSQDDDFVPWLNHH
notes: A. thaliana PIF3, residues 1-100; His6-SUMO only on the pET-19b construct that was purified; the pET-28c construct used in lysate has the same AtPIF part, linker and EYFP; also called P3.100-EYFP; source: E. coli BL21(DE3): in crude lysate (pET-28c), and purified (pET-19b; IMAC, SENP2 cleavage, second IMAC, optional anion exchange); not shown: His6-SUMO, N-terminal, cleaved
B3: P6.AA-EYFP (domain or fragment)
chain: MDQEYMELVFENGQILAKGQRSNVSLHNQRTKSIMDLYEAEYNEDFMKSIIHGGGGDQEYMELVFENGQILAKGQRSNTNMLESNKHVD
B4: AtPIF6 (1-100)-EYFP, P6.100 (domain or fragment, Arabidopsis thaliana, UniProt Q8L5W7 1-100, looked up)
chain: MMFLPTDYCCRLSDQEYMELVFENGQILAKGQRSNVSLHNQRTKSIMDLYEAEYNEDFMKSIIHGGGGAITNLGDTQVVPQSHVAAAHETNMLESNKHVD
notes: A. thaliana PIF6, residues 1-100; His6-SUMO only on the pET-19b construct that was purified; the pET-28c construct used in lysate has the same AtPIF part, linker and EYFP; also called P6.100-EYFP; source: E. coli BL21(DE3): in crude lysate (pET-28c), and purified (pET-19b; IMAC, SENP2 cleavage, second IMAC, optional anion exchange); not shown: His6-SUMO, N-terminal, cleaved
B5: P3.AA-EYFP (domain or fragment)
chain: MVDEVVELVWENGQISTQSQSSRSRNIPPPQANSSRAREIGNGSKTTMVDEIPMSVPSLVDEVVELVWENGQISTQSQSSRSRFVPWLNHH
B6: P3 (AtPIF3 1-100 without the N-terminal region preceding APB.A)-EYFP (domain or fragment)
chain: MVDEVVELVWENGQISTQSQSSRSRNIPPPQANSSRAREIGNGSKTTMVDEIPMSVPSLMTGLSQDDDFVPWLNHH
B7: P3.A-EYFP (domain or fragment)
chain: MVDEVVELVWENGQISTQSQSSRSRNIPPPQANSSRAREIGN
B8: P6.AAfus-EYFP (domain or fragment)
chain: MDQEYMELVFENGQILAKGQRSNDQEYMELVFENGQILAKGQRSNTNMLESNKHVD
B9: P6 (AtPIF6 1-100 without the N-terminal region preceding APB.A)-EYFP (domain or fragment)
chain: MDQEYMELVFENGQILAKGQRSNVSLHNQRTKSIMDLYEAEYNEDFMKSIIHGGGGAITNLGDTQVVPQSHVAAAHETNMLESNKHVD
B10: P3.AAfus-EYFP (domain or fragment)
chain: MVDEVVELVWENGQISTQSQSSRSRVDEVVELVWENGQISTQSQSSRSRFVPWLNHH

The first series concerns the molecule itself. In words: SEC; AtPIF-EYFP variants or EYFP alone, 10 µM, not illuminated; Superdex 200 Increase 10/300 GL; 67 mM sodium phosphate pH 8.0, 200 mM NaCl.
Conditions: not given
In general terms: In gel filtration, larger molecules generally elute earlier.
In the case of B1, the “stoichiometry N” value was found to be 2.
Take B2: the “stoichiometry N” value is 2.
Same read-out and setting: next, B3: 2; B4: 2.
As to B5, the “stoichiometry N” value was 2.
On the same count and under the same terms, the figure for B6 is 2.

The target in a further series is T1, Arabidopsis thaliana phytochrome B …. Briefly: fluorescence polarisation; anisotropy of EYFP; 20 nM AtPIF-EYFP constant, AtPhyB PCM 0-10 µM titrated, red light (640 nm), Pfr state; KD corrected for the Pfr fraction (about 0.56); 20 mM HEPES/HCl pH 7.3, 10 mM NaCl, 100 µg/mL BSA; single-site isotherm. Particulars: both partners purified.
Take MDQEYMELVFENGQILAKGQ (domain or fragment) [P6.A19-EYFP]: the Kd is greater than 2000 nM.
In turn, B7 displayed a Kd of 220 ± 40 nM.
With MVDEVVELVWENGQISTQSQSSRSRMTGLSQDDDFVPWLNHH (domain or fragment) [P3.fus-EYFP], the Kd stood at 270 ± 60 nM.
In the case of B1, the Kd is 200 ± 90 nM.
B2: binding was put at a Kd of 200 ± 70 nM.
B3 showed a Kd of 360 ± 40 nM. Compared with the last molecule, the Kd is about 1.8-fold higher.
B4 yielded a Kd of 10 ± 8 nM. This Kd is about 36-fold lower than that of the molecule before.
As to B8, the Kd was 230 ± 30 nM.
In turn, MDQEYMELVFENGQILAKGQRSNVSLHNQRTKSIMDLYEA (domain or fragment) [P6.A-EYFP] had an equilibrium dissociation constant (Kd) of 280 ± 100 nM.
Take MDQEYMELVFENGQILAKGQRSN (domain or fragment) [P6.As-EYFP]: binding was put at a Kd of 710 ± 80 nM.
For the molecule B5, the Kd turned out to be 370 ± 40 nM.
MVDEVVELVWENGQISTQSQ (domain or fragment) [P3.A19-EYFP] came in with an equilibrium dissociation constant (Kd) greater than 1000 nM.
For B9, binding was put at a Kd of 10 ± 7 nM.
In turn, MVDEVVELVWENGQISTQSQSSRSR (domain or fragment) [P3.As-EYFP] returned a Kd of 680 ± 60 nM. Against the preceding molecule, the Kd is about 68-fold higher.
As for B6, the affinity, expressed as Kd, was 220 ± 40 nM.
Regarding B10, the affinity, expressed as Kd, was 230 ± 50 nM.

The target is the same in the next series. Briefly: fluorescence polarisation; anisotropy of EYFP; 20 nM AtPIF-EYFP constant, AtPhyB PCM 0-10 µM titrated, far-red light (750 nm), Pr state; 20 mM HEPES/HCl pH 7.3, 10 mM NaCl, 100 µg/mL BSA; single-site isotherm. The following applies: both partners purified. A general note: Polarisation of emitted light reports the rotation of a fluorescent probe.
With B7, the dissociation constant Kd was greater than 10000 nM.
In the case of MVDEVVELVWENGQISTQSQSSRSRMTGLSQDDDFVPWLNHH (domain or fragment) [P3.fus-EYFP], the Kd was greater than 10000 nM.
As to B1, the Kd is greater than 10000 nM.
As to B2, the Kd was greater than 2000 nM.
As for B3, the Kd was greater than 2000 nM.
With B8, the Kd was greater than 10000 nM.
The molecule MDQEYMELVFENGQILAKGQRSNVSLHNQRTKSIMDLYEA (domain or fragment) [P6.A-EYFP] yielded a Kd greater than 2000 nM.
The same measure, in the same setting: the figure for MDQEYMELVFENGQILAKGQRSN (domain or fragment) [P6.As-EYFP] is greater than 10000 nM.
In turn, B5 had a Kd greater than 3000 nM.
MVDEVVELVWENGQISTQSQSSRSR (domain or fragment) [P3.As-EYFP]: the Kd is greater than 10000 nM.
Molecule B6 gave a Kd greater than 10000 nM.
On the same count and under the same terms, next, B10: greater than 10000 nM.

The next series has as its target B7. Briefly: SEC; AtPIF-EYFP variants or EYFP alone, 10 µM, not illuminated; Superdex 200 Increase 10/300 GL; 67 mM sodium phosphate pH 8.0, 200 mM NaCl.
Conditions: not given
As to B7, the stoichiometry N was 2.
